Measured values as given in patent US20250243281A1 (IMMUNITAS THERAPEUTICS, published 2025).
Read-outs that look alike come from different tables or passages of the source.

T1: hCLEC2D (human, UniProt Q9UHP7 1-191)
T1 construct: Overexpressed on HEK293 or K562 cells; the same id is used for endogenous CLEC2D on NALM6 and Raji cells; also called LLT1
T1 sequence: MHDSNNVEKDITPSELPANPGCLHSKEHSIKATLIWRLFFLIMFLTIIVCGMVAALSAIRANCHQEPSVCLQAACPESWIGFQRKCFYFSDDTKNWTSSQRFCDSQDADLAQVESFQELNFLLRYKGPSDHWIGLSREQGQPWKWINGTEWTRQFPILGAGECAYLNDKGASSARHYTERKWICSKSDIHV

T2: hKLRF1 (human, UniProt Q9NZS2 1-231)
T2 construct: Overexpressed on HEK293 cells
T2 sequence: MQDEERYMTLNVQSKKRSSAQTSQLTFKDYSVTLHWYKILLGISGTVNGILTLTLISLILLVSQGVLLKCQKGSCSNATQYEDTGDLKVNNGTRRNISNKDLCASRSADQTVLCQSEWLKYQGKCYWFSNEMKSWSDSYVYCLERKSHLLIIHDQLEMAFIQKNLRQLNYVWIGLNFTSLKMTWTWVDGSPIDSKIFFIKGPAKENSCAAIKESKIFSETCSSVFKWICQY

T3: hKLRF2 (human, UniProt D3W0D1 1-207)
T3 construct: Overexpressed on HEK293 cells
T3 sequence: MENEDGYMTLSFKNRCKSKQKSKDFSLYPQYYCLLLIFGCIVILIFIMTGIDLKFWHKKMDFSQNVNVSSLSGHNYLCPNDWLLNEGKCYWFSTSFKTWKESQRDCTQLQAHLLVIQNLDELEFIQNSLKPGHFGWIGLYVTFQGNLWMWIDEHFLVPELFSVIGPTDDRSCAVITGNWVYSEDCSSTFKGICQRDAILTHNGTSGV

T4: hCLEC12B (human, UniProt Q2HXU8 1-276)
T4 construct: Overexpressed on HEK293 cells
T4 sequence: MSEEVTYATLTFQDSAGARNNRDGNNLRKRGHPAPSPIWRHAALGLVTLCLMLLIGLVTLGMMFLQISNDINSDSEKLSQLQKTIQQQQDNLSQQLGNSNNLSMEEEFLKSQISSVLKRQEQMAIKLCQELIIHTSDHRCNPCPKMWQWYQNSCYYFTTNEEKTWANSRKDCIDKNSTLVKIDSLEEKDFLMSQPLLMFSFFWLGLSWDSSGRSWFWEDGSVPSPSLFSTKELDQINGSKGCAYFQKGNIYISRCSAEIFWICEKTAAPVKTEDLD

B1: Ab3 (antibody, human IgG1, V domains shown)
VH: EVQLLESGGGLVQPGGSLRLSCAASGFTFERYAMSWVRQAPGKGLEWVSAISAAGGTTYYADSVKGRFTISRDNSKNTLYLQMNSLRAEDTAVYYCAKPLDSSQWADFDLWGRGTLVTVSS
VL: DIQLTQSPSSVSASVGDRVTITCRASQDISSWLAWYQQKPGKAPKFLIYAASALQSGVPSRFSGSGSGTDFTLTISSLQPEDFATYYCQQALVLPITFGGGTKVEIK
notes: IgG purified from yeast culture
B2: Ab10 (antibody, human IgG1, V domains shown)
VH: EVQLLESGGGLVQPGGSLRLSCAASGFTFSQYAMSWVRQAPGKGLEWVSAISAVGGSTYYADSVKGRFTISRDNSKNTLYLQMNSLRAEDTAVYYCAKPLDSSQWADFDLWGRGTLVTVSS
VL: DIQLTQSPSSVSASVGDRVTITCRASQDISSWLAWYQQKPGKAPKLLIYAASALQSGVPSRFSGSGSGTDFTLTISSLQPEDFATYYCQQADVLPITFGGGTKVEIK
notes: as for B1
B3: Ab11 (antibody, human IgG1, V domains shown)
VH: EVQLLESGGGLVQPGGSLRLSCAASGFTFSQYAMSWVRQAPGKGLEWVSAISAAGGTTYYADSVKGRFTISRDNSKNTLYLQMNSLRAEDTAVYYCAKPLDSSQWADFDLWGRGTLVTVSS
VL: DIQLTQSPSSVSASVGDRVTITCRASQGIYSWLAWYQQKPGKAPKLLIYAASSLQSGVPSRFSGSGSGTDFTLTISSLQPEDFATYYCQQASDLPITFGGGTKVEIK
notes: as for B1
B4: Ab18 (antibody, human IgG1, V domains shown)
VH: QVQLVESGGGLVKPGGSLRLSCAASGFTFSQYYMSWIRQAPGKGLEWVSYISPSGATIAYADSVKGRFTISRDNAKNSLYLQMNSLRAEDTAVYYCARSLMATGTHLYFDLWGRGTLVTVSS
VL: DIQLTQSPSSVSASVGDRVTITCRASQGISSWLAWYQQKPGKAPKLLIYAAESLQSGVPSRFSGSGSGTDFTLTISSLQPEDFATYYCQQVTSQPPYTFGGGTKVEIK
notes: as for B1
B5: Ab12 (antibody, human IgG1, V domains shown)
VH: QVQLVESGGGLVKPGGSLRLSCAASGFTFAQYYMSWIRQAPGKGLEWVSYISPSGSTIAYADSVKGRFTISRDNAKNSLYLQMNSLRAEDTAVYYCARSLMATGTHLYFDLWGRGTLVTVSS
VL: DIQLTQSPSSVSASVGDRVTITCRASQDISSWLAWYQQKPGKAPKLLIYAASSLQSGVPSRFSGSGSGTDFTLTISSLQPEDFATYYCQQVTSFPPYTFGGGTKVEIK
notes: as for B1
B6: Ab13 (antibody, human IgG1, V domains shown)
VH: QVQLVESGGGLVKPGGSLRLSCAASGFTFANYYMSWIRQAPGKGLEWVSYISPSGATIAYADSVKGRFTISRDNAKNSLYLQMNSLRAEDTAVYYCARSLMATGTHLYFDLWGRGTLVTVSS
VL: DIQLTQSPSSVSASVGDRVTITCRASSGISSWLAWYQQKPGKAPKLLIYAASELQSGVPSRFSGSGSGTDFTLTISSLQPEDFATYYCQQATSFPPYTFGGGTKVEIK
notes: as for B1
B7: Ab15 (antibody, human IgG1, V domains shown)
VH: QVQLVESGGGLVKPGGSLRLSCAASGFTFPQYYMSWIRQAPGKGLEWVSYISPSGATIYYADSVKGRFTISRDNAKNSLYLQMNSLRAEDTAVYYCARSLMSTGTHLYFDLWGRGTLVTVSS
VL: DIQLTQSPSSVSASVGDRVTITCRASQGISSWLAWYQQKPGKAPKLLIYAASSLQSGVPSRFSGSGSGTDFTLTISSLQPEDFATYYCQQVTSTPPYTFGGGTKVEIK
notes: as for B1
B8: Ab14 (antibody, human IgG1, V domains shown)
VH: QVQLVESGGGLVKPGGSLRLSCAASGFTFGQYYMSWIRQAPGKGLEWVSYISPSGATIAYADSVKGRFTISRDNAKNSLYLQMNSLRAEDTAVYYCARSLMSTGTHLYFDLWGRGTLVTVSS
VL: DIQLTQSPSSVSASVGDRVTITCRASQGISDWLAWYQQKPGKAPKLLIYAASSLQSGVPSRFSGSGSGTDFTLTISSLQPEDFATYYCQQVTSFPPYTFGGGTKVEIK
notes: as for B1
B9: Ab16 (antibody, human IgG1, V domains shown)
VH: QVQLVESGGGLVKPGGSLRLSCAASGFTFSDYYMSWIRQAPGKGLEWVSYISPSGATIAYADSVKGRFTISRDNSKNTLYLQMNSLRAEDTAVYYCARSLMATGTHLYFDLWGRGTLVTVSS
VL: DIQLTQSPSSVSASVGDRVTITCRASQGISSWLAWYQQKPGKAPKLLIYAASGLQSGVPSRFSGSGSGTDFTLTISSLQPEDFATYYCQQSTSFPPYTFGGGTKVEIK
notes: as for B1

How the values were obtained:
hCLEC2D [1] = target: T1, hCLEC2D; assay: flow cytometry; 100 nM antibody on HEK293 cells expressing CLEC2D; Alexa Fluor 647 anti-human IgG; MFI
Description: (§1) For the antibody binding assay, all cell lines were washed in phosphate-buffered saline with 0.1% bovine serum albumin (PBSA) and seeded in a 96 well plate at a density of 4×10⁴ cells per well. Washed cells were resuspended in 100 nM of antibody (a saturating concentration to measure maximum binding on cells) and incubated at room temperature for 30 minutes. […] Cells were analyzed by flow cytometry with a Thermo Fisher Attune flow cytometer.
(§2) Data were analyzed using FlowJo software. MFI for each sample was calculated and exported into Graphpad Prism.

hKLRF1 [2] = target: T2, hKLRF1; assay: flow cytometry; 100 nM antibody on HEK293 cells expressing KLRF1; Alexa Fluor 647 anti-human IgG; MFI
Description: as §1, §2

hKLRF2 [3] = target: T3, hKLRF2; assay: flow cytometry, HEK293 transfectants, 100 nM antibody;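 further: antibody applied at a saturating level and incubated with cells for 30 min at room temperature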
Description: as §1, §2

hKLRF1 [4] = target: T2, hKLRF1; assay: as above
Description: as §1, §2

hCLEC2D [5] = target: T1, hCLEC2D; assay: as above
Description: as §1, §2

hCLEC12B [6] = target: T4, hCLEC12B; assay: as above
Description: as §1, §2

hKLRF2 [7] = target: T3, hKLRF2; assay: flow cytometry; 100 nM antibody on HEK293 cells expressing KLRF2; Alexa Fluor 647 anti-human IgG; MFI
Description: as §1, §2

hKLRF1 [8] = target: T2, hKLRF1; assay: flow cytometry; 100 nM antibody on HEK293 cells expressing KLRF1; Alexa Fluor 647 anti-human IgG; MFI; remark: listed apart in the source
Description: as §1, §2

hCLEC12B [9] = target: T4, hCLEC12B; assay: flow cytometry; 100 nM antibody on HEK293 cells expressing CLEC12B; Alexa Fluor 647 anti-human IgG; MFI
Description: as §1, §2

hKLRF2 [10] = target: T3, hKLRF2; assay: flow cytometry; 100 nM antibody on HEK293 cells expressing KLRF2; Alexa Fluor 647 anti-human IgG; MFI; remark: listed apart in the source
Description: as §1, §2

hCLEC2D [11] = target: T1, hCLEC2D; assay: flow cytometry; 100 nM antibody on HEK293 cells expressing CLEC2D; Alexa Fluor 647 anti-human IgG; MFI; remark: listed apart in the source
Description: as §1, §2

Row | Binder | binding result (hCLEC2D [1]) | binding result (hKLRF1 [2]) | % of CD161 binding (hKLRF2 [3]) [%] | % of CD161 binding (hKLRF1 [4]) [%] | % of CD161 binding (hCLEC2D [5]) [%] | % of CD161 binding (hCLEC12B [6]) [%] | binding result (hKLRF2 [7]) | binding result (hKLRF1 [8]) | binding result (hCLEC12B [9]) | binding result (hKLRF2 [10]) | binding result (hCLEC2D [11])
1 | B1 | no binding (tested: 100 nM) | no binding (tested: 100 nM) | -0.007 | 0.011 | 0.832 | -0.042 | – | – | – | – | –
2 | B2 | no binding (tested: 100 nM) | no binding (tested: 100 nM) | 0.004 | 0.046 | 0.935 | -0.004 | no binding (tested: 100 nM) | – | – | – | –
3 | B3 | no binding (tested: 100 nM) | no binding (tested: 100 nM) | 0.021 | 0.024 | 0.785 | -0.003 | no binding (tested: 100 nM) | – | – | – | –
4 | B4 | – | – | 0.101 | 0.121 | 0.865 | 0.169 | – | no binding (tested: 100 nM) | no binding (tested: 100 nM) | no binding (tested: 100 nM) | no binding (tested: 100 nM)
5 | B5 | – | – | 0.055 | 0.065 | 1.16 | 0.061 | – | no binding (tested: 100 nM) | no binding (tested: 100 nM) | no binding (tested: 100 nM) | no binding (tested: 100 nM)
6 | B6 | – | – | 0.089 | 0.106 | 0.907 | 0.175 | – | no binding (tested: 100 nM) | no binding (tested: 100 nM) | no binding (tested: 100 nM) | no binding (tested: 100 nM)
7 | B7 | – | – | 0.067 | 0.114 | 0.935 | 0.071 | – | no binding (tested: 100 nM) | no binding (tested: 100 nM) | no binding (tested: 100 nM) | no binding (tested: 100 nM)
8 | B8 | – | – | 0.054 | 0.09 | 1.02 | 0.064 | – | no binding (tested: 100 nM) | no binding (tested: 100 nM) | no binding (tested: 100 nM) | no binding (tested: 100 nM)
9 | B9 | – | – | 0.048 | 0.061 | 0.865 | 0.088 | – | no binding (tested: 100 nM) | no binding (tested: 100 nM) | no binding (tested: 100 nM) | no binding (tested: 100 nM)
